According to US5460942A, “The catalytic moiety of the glucose-6-phosphatase system: the gene and protein and related mutations” (The United States of America as represented by the …, priority 1993, dated 1995):

Tests used:
[1] = target: human liver microsomal G-6-Pase (Homo sapiens, UniProt P35575); settings: read-out: Vanadate K1; human liver microsomes
Method: (§1) The functional identity of the human G-6-Pase cDNA was studied in a manner similiar to that described above with the murine G-6-Pase. Detailed biochemical studies were performed on microsomal preparations isolated from COS-1 cells transiently transfected with the phG-6-Pase-1 cDNA and compared with activities in human liver microsomes.

human G-6-Pase = human G-6-Pase (Homo sapiens, UniProt P35575, A192T); settings: read-out: Vanadate K1; phG-6-Pase-1-transfected COS-1 microsomes
Method: as §1

murine G-6-Pase = target: T1, murine G-6-Pase (Mus musculus, UniProt P35576); settings: read-out: Ki values for vanadate observed in the present study; both microsomal preparations (transfected COS-1 cells and adult mouse livers)
T1 sequence (P35576 1-357): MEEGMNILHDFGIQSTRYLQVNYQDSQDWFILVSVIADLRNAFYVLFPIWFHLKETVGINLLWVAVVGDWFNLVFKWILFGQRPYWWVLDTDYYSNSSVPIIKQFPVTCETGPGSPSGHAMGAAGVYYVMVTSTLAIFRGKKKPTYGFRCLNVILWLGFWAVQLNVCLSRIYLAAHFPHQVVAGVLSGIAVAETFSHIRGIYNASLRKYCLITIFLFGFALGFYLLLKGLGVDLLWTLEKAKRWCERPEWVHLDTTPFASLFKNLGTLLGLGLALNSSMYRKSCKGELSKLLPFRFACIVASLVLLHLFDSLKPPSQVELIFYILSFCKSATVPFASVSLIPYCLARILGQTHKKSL
Method: COS-1 cells were grown at 37° C. in HEPES-buffered Dulbecco modified minimal essential medium supplemented with streptomycin, penicillin, and 4% fetal bovine serum. […] Mock transfections of COS-1 cultures with the pSVL vector were used as controls.
(§2) Microsomal membranes were isolated by the method of Burchell et al. supra. Samples were taken from either Swiss Webster mice which had been fasted overnight or freshly prepared homogenates of pSVLmG-6-Pase-transfected COS-1 cells. Disrupted microsomal membranes were prepared by incubating intact membranes in 0.2% deoxycholate for 20 min at 0° C.
(§3) Phosphohydrolase activity was determined essentially as described by Burchell et al. Supra. […] Sample absorbance was determined at 820 nm and is related to the amount of phosphate released using a standard curve constructed by a stock of inorganic phosphate solution.

[2] = target: T2, mouse liver microsomal G-6-Pase (Mus musculus, UniProt P35576); assay: Phosphohydrolase assay, adult mouse liver microsomes; assay type: biochemical; settings: competitive inhibitor of glucose-6-P phosphohydrolysis, read-out: Vanadate, Ki
T2 construct: hepatic G-6-Pase activities of microsomes isolated from adult mouse liver; from tissue; host or cells: liver microsomes of fasted Swiss Webster mice
T2 sequence (P35576 1-357): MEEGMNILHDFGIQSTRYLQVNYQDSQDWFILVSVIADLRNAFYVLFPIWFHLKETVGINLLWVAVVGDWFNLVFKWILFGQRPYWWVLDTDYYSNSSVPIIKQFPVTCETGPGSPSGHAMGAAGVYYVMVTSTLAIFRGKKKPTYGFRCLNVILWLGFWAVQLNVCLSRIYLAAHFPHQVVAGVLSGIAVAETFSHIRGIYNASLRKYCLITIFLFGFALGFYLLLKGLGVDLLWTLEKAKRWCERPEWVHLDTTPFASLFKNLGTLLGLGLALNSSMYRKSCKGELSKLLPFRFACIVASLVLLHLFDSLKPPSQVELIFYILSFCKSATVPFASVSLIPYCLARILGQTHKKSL
Method: as §2, §3

[3] = target: glucose-6-P phosphohydrolase activity; settings: read-out: Ki for vanadate reported; permeable hepatocytes or rat microsomes; cited from earlier work
[4] = substrate: O=P(O)(O)OC[C@H]1OC(O)[C@@H](O)[C@@H](O)[C@@H]1O; assay: cells, lysate or membranes named; settings: other: disrupted adult mouse liver microsomes; mean ± SEM; pH 6.5; 30.0 °C
[5] = substrate: O=P(O)(O)OC[C@H]1OC(O)[C@H](O)[C@@H](O)[C@@H]1O; assay: cells, lysate or membranes named; settings: pH 6.5, 30.0 °C
[6] = pH profile of glucose-6-P phosphohydrolase activity in disrupted microsomes; assay type: biochemical, mouse
[7] = Thermal stability of glucose-6-P phosphohydrolase activity (37° C., 10 min, pH 5.0); assay type: biochemical; settings: for Thermal Stability (enzyme activities remaining after heat treatment): deoxycholate (0.2%) disrupted microsomes
Method: Hepatic G-6-Pase is characterized by its high thermal lability; G-6-Pase is completely inactivated by incubating the microsomal preparation (or homogenate) at pH 5.0 for 10 min at 37° C., Hers, H. G., in Advances in Metabolic Disorders Vol 1 (eds Levine, R., Luft, L.), 1-44 (Academic Press, London, 1964).

[8] = Carbamyl-P:glucose phosphotransferase activity in disrupted microsomes; assay type: biochemical, mouse; settings: deoxycholate-disrupted microsomes, linear region of enzyme concentration curves
Method: Phosphotransferase activity was determined by a modification of the method described by Jorgenson and Nordlie, supra. Reaction mixture (10 μl) contained 100 mM HEPES buffer, pH 6.5, 50 mM glucose, […] D-glucose (10^5 cpm/reaction, 256 mCi/mmol, ICN Biochemicals, Irvine, Calif.), 4 mM carbamyl-P, and deoxycholate-disrupted microsomal proteins. […] The samples were then centrifuged at 10,000×g for 5 min, and 2 to 4 μl of supernatant applied to a PEI-cellulose plate (J. T. Baker, Inc., Phillipsburg, N.J.). Glucose-6-P was separated from glucose by thin-layer chromatography developed in water. Spots were quantitated on an AMBIS Radioanalytic Imaging System (San Diego, Calif.).

[9] = Phosphohydrolase activity of site-directed human G-6-Pase mutants in transfected cells; assay type: biochemical; settings: arginine to cysteine substitution; pSVL constructs in transfected cells
From the text: The two outside PCR primers were 01 (5'-[…]-3' (Seq. ID No.:29), nucleotides 77 to 96) and 02 (5'-[…]-3' (Seq. ID No.:30), nucleotides 1153 to 1130). […] 01 and 02 contain an additional XhoI or XbaI linker, respectively. […] The amplified fragments were digested with XhoI and XbaI and ligated into a pSVL vector. All constructs were confirmed by DNA sequencing.

With `[O]=[V]([OH])([OH])[OH]` [Vanadate] as the molecule, how does the Ki [1] read?
Its Ki is 1.61 mM.

And the Ki (human G-6-Pase)?
Its Ki is 1.68 mM.

What about the Ki (murine G-6-Pase) of the same molecule?
The Ki was 330 to 340 µM.

And the Ki [2]?
The Ki was 330 µM.

And the Ki [3]?
Its Ki is 1500 nM.

B1: mouse liver microsomal G-6-Pase (Mus musculus) (protein)
chain: MEEGMNILHDFGIQSTRYLQVNYQDSQDWFILVSVIADLRNAFYVLFPIWFHLKETVGINLLWVAVVGDWFNLVFKWILFGQRPYWWVLDTDYYSNSSVPIIKQFPVTCETGPGSPSGHAMGAAGVYYVMVTSTLAIFRGKKKPTYGFRCLNVILWLGFWAVQLNVCLSRIYLAAHFPHQVVAGVLSGIAVAETFSHIRGIYNASLRKYCLITIFLFGFALGFYLLLKGLGVDLLWTLEKAKRWCERPEWVHLDTTPFASLFKNLGTLLGLGLALNSSMYRKSCKGELSKLLPFRFACIVASLVLLHLFDSLKPPSQVELIFYILSFCKSATVPFASVSLIPYCLARILGQTHKKSL
With B1 as the molecule, how does the Km [4] read?
The Km was 670 µM.

And the Km ([5]; other: disrupted adult mouse liver microsomes, mean ± SEM)?
The Km was 0.68 mM.

What about the Km ([5]; other: intact adult mouse liver microsomes) of the same molecule?
Its Km is 3.3 mM.

B2: human G-6-Pase (Homo sapiens; A192T) (protein)
chain: MEEGMNVLHDFGIQSTHYLQVNYQDSQDWFILVSVIADLRNAFYVLFPIWFHLQEAVGIKLLWVAVIGDWLNLVFKWILFGQRPYWWVLDTDYYSNTSVPLIKQFPVTCETGPGSPSGHAMGTAGVYYVMVTSTLSIFQGKIKPTYRFRCLNVILWLGFWAVQLNVCLSRIYLAAHFPHQVVAGVLSGIAVTETFSHIHSIYNASLKKYFLITFFLFSFAIGFYLLLKGLGVDLLWTLEKAQRWCEQPEWVHIDTTPFASLLKNLGTLFGLGLALNSSMYRESCKGKLSKWLPFRLSSIVASLVLLHVFDSLKPPSQVELVFYVLSFCKSAVVPLASVSVIPYCLAQVLGQPHKKSL
Which Km ([5]; other: phG-6-Pase-1-transfected COS-1 microsomes) does the source give for B2 here?
The Km was 1.77 ± 0.13 mM.

B3: human liver microsomal G-6-Pase (Homo sapiens) (protein)
chain: MEEGMNVLHDFGIQSTHYLQVNYQDSQDWFILVSVIADLRNAFYVLFPIWFHLQEAVGIKLLWVAVIGDWLNLVFKWILFGQRPYWWVLDTDYYSNTSVPLIKQFPVTCETGPGSPSGHAMGTAGVYYVMVTSTLSIFQGKIKPTYRFRCLNVILWLGFWAVQLNVCLSRIYLAAHFPHQVVAGVLSGIAVAETFSHIHSIYNASLKKYFLITFFLFSFAIGFYLLLKGLGVDLLWTLEKAQRWCEQPEWVHIDTTPFASLLKNLGTLFGLGLALNSSMYRESCKGKLSKWLPFRLSSIVASLVLLHVFDSLKPPSQVELVFYVLSFCKSAVVPLASVSVIPYCLAQVLGQPHKKSL
Which Km ([5]; other: human liver microsomes) does the source give for B3 here?
Its Km is 1.71 ± 0.11 mM.

B4: pSVLmG-6-Pase-Transfacted COS: recombinant murine G-6-Pase in microsomes of COS-1 cells transfected with pSVLmG-6-Pase (protein, UniProt P35576 1-357, looked up)
Glucose-6-phosphatase …: MEEGMNILHDFGIQSTRYLQVNYQDSQDWFILVSVIADLRNAFYVLFPIWFHLKETVGINLLWVAVVGDWFNLVFKWILFGQRPYWWVLDTDYYSNSSVPIIKQFPVTCETGPGSPSGHAMGAAGVYYVMVTSTLAIFRGKKKPTYGFRCLNVILWLGFWAVQLNVCLSRIYLAAHFPHQVVAGVLSGIAVAETFSHIRGIYNASLRKYCLITIFLFGFALGFYLLLKGLGVDLLWTLEKAKRWCERPEWVHLDTTPFASLFKNLGTLLGLGLALNSSMYRKSCKGELSKLLPFRFACIVASLVLLHLFDSLKPPSQVELIFYILSFCKSATVPFASVSLIPYCLARILGQTHKKSL
modifications: in COS-1 microsomes
notes: recombinant murine G-6-Pase in microsomes of COS-1 cells transfected with pSVLmG-6-Pase
What does the source list for B4?
pH optimum of glucose-6-P phosphohydrolase activity [6]: ~6.5; Thermal Stability (enzyme activities remaining after heat treatment) ([7]; 37° C. for 10 min at pH 5.0, murine study): 1.6%; glucose-6-P phosphohydrolase activity after incubation at 37° C. for 10 min at pH 5.0 (in words) ([7]; murine study): abolished; Phosphotransferase, Carbamyl-P: Glucose [8]: 0.22 μmol/min/mg of microsomal prot

B5: phG-6-Pase-1-COS: recombinant human G-6-Pase in microsomes of COS-1 cells transiently transfected with phG-6-Pase-1 cDNA (protein, UniProt P35575 1-357, looked up)
Glucose-6-phosphatase …: MEEGMNVLHDFGIQSTHYLQVNYQDSQDWFILVSVIADLRNAFYVLFPIWFHLQEAVGIKLLWVAVIGDWLNLVFKWILFGQRPYWWVLDTDYYSNTSVPLIKQFPVTCETGPGSPSGHAMGTAGVYYVMVTSTLSIFQGKIKPTYRFRCLNVILWLGFWAVQLNVCLSRIYLAAHFPHQVVAGVLSGIAVAETFSHIHSIYNASLKKYFLITFFLFSFAIGFYLLLKGLGVDLLWTLEKAQRWCEQPEWVHIDTTPFASLLKNLGTLFGLGLALNSSMYRESCKGKLSKWLPFRLSSIVASLVLLHVFDSLKPPSQVELVFYVLSFCKSAVVPLASVSVIPYCLAQVLGQPHKKSL
modifications: in COS-1 microsomes
notes: recombinant human G-6-Pase in microsomes of COS-1 cells transiently transfected with phG-6-Pase-1 cDNA
Which results are given for B5?
Thermal Stability (enzyme activities remaining after heat treatment) ([7]; 10 min at 37° C., 50 mM cacodylate buffer pH 5.0, human study): 6.0%; glucose-6-P phosphohydrolase activity after incubation at 37° C. for 10 min at pH 5.0 (in words) ([7]; human study): virtually abolished

B6: G-6-Pase-Cys^83: human G-6-Pase mutant, arginine 83 changed to cysteine (protein, UniProt P35575 1-357, looked up, variant R83C)
Glucose-6-phosphatase …: MEEGMNVLHDFGIQSTHYLQVNYQDSQDWFILVSVIADLRNAFYVLFPIWFHLQEAVGIKLLWVAVIGDWLNLVFKWILFGQCPYWWVLDTDYYSNTSVPLIKQFPVTCETGPGSPSGHAMGTAGVYYVMVTSTLSIFQGKIKPTYRFRCLNVILWLGFWAVQLNVCLSRIYLAAHFPHQVVAGVLSGIAVAETFSHIHSIYNASLKKYFLITFFLFSFAIGFYLLLKGLGVDLLWTLEKAQRWCEQPEWVHIDTTPFASLLKNLGTLFGLGLALNSSMYRESCKGKLSKWLPFRLSSIVASLVLLHVFDSLKPPSQVELVFYVLSFCKSAVVPLASVSVIPYCLAQVLGQPHKKSL
For B6, which “G-6-Pase phosphohydrolase activity of mutant” value [9] is on record?
Its value is “abolished”.

B7: G-6-Pase-Cys^295: human G-6-Pase mutant, arginine 295 changed to cysteine (protein, UniProt P35575 1-357, looked up, variant R295C)
Glucose-6-phosphatase …: MEEGMNVLHDFGIQSTHYLQVNYQDSQDWFILVSVIADLRNAFYVLFPIWFHLQEAVGIKLLWVAVIGDWLNLVFKWILFGQRPYWWVLDTDYYSNTSVPLIKQFPVTCETGPGSPSGHAMGTAGVYYVMVTSTLSIFQGKIKPTYRFRCLNVILWLGFWAVQLNVCLSRIYLAAHFPHQVVAGVLSGIAVAETFSHIHSIYNASLKKYFLITFFLFSFAIGFYLLLKGLGVDLLWTLEKAQRWCEQPEWVHIDTTPFASLLKNLGTLFGLGLALNSSMYRESCKGKLSKWLPFCLSSIVASLVLLHVFDSLKPPSQVELVFYVLSFCKSAVVPLASVSVIPYCLAQVLGQPHKKSL
Which “G-6-Pase phosphohydrolase activity of mutant” value [9] does the source give for B7 here?
Its value is “abolished”.
